Reference: patent US20160264650A1 (Regeneron, published 2016)
Like-named read-outs stand apart in the source and are kept apart here.

Tests used:
CBD-toxin A-Fc [1] = molecular target: T1, CBD-toxin A-Fc (Clostridium difficile, UniProt P16154 1848-2710); assay: SPR Biacore, CBD-A-Fc captured, 500 nM mAb flowed
T1 construct: also called CBD-A; C-term Toxin A

[2] = molecular target: T2, Clostridium difficile toxin A, soluble full-length (TechLab) (Clostridium difficile, UniProt P16154 1-2710); assay: cell-based or functional assay
CBD-toxin A-Fc [3] = molecular target: T1, CBD-toxin A-Fc; assay: SPR Biacore, mAb captured, 100 nM CBD-A-Fc flowed
CBD-toxin B-Fc = molecular target: T3, CBD-toxin B-Fc (Clostridium difficile, UniProt P18177 1851-2366); assay: SPR Biacore, CBD-B-Fc captured, 500 nM mAb flowed
T3 construct: also called CBD-B; C-term Toxin B

[4] = molecular target: T2, Clostridium difficile toxin A, soluble …; assay: SPR Biacore T200, 37C, mAb capture
[5] = molecular target: T4, C-term receptor Binding Domain (CBD) of toxin B (Clostridium difficile, UniProt P18177 1851-2366); assay: SEC (Superose 6) of CBD and mAb mixture
T4 construct: also called CBD-B

[6] = molecular target: T5, Clostridium difficile toxin B, soluble full-length (TechLab) (Clostridium difficile, UniProt P18177 2-2366); assay: cell-based or functional assay
[7] = molecular target: T5, Clostridium difficile toxin B, soluble …; assay: SPR Biacore T200, 37C, mAb capture
[8] = molecular target: T2, Clostridium difficile toxin A, soluble …; assay: SPR Biacore T200, 37C, mAb capture; remark: listed apart in the source

B1: H2aM3067N (antibody, V domains shown)
VH: QIQLVESGGGVVQPGRSLRLSCVASGFTLSGHGMHWVRQAPGKGLEWVAFISFDGGHQDYTDAAEGRFTISRDNSKNTLYLEMVSLRPADTAIYYCVKGSDSSRGFGYWGRGILVTVSS
VL: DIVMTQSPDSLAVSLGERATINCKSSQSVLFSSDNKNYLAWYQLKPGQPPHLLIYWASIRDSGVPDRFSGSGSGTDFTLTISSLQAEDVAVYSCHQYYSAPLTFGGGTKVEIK
notes: also called H2M3067N; H1M3067N
CBD-toxin A-Fc [1]
  binding (RU): 237 RU
[2]
  IC50, Vero cell viability (neutralization), Trial 1, 32 pM Toxin A: 64 pM
  IC50, Vero cell viability (neutralization), Trial 2, 32 pM Toxin A: 44 pM
CBD-toxin A-Fc [3]
  binding (RU): -2 RU

B2: H1M3134N (antibody, V domains shown)
VH: QVQLVESGGDVVQPGRSLRLSCAASGFTFSGHGMHWVRQAPGKGLEWVALILYDGSSEDYTDSVKGRFTVSRDNSKNTLYLQMNSLRAEDTAVYYCARGSILNRPFDYWGQGTLVTVSS
VL: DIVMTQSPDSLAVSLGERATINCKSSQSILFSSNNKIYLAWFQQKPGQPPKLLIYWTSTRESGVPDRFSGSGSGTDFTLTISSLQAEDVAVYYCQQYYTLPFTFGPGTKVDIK
notes: also called HIM3134N
CBD-toxin A-Fc [1]
  binding (RU): 195 RU
[2]
  IC50, Vero cell viability (neutralization), Trial 4, 32 pM Toxin A: 38 pM
CBD-toxin A-Fc [3]
  binding (RU): -1 RU

B3: H1H3324P (antibody, V domains shown)
VH: EVQLVESGGGLVQPGGSLRLSCAASGFTFSSYDMHWVRQVIGKGLEWVSAIGTVGDTYYAGSVKGRFTISRENAKNSLYLQMNSLRAGDTAVYYCARDRGGANIYSFYYGMDVWGQGTTVTVSS
VL: DIQMTQSPSSLSVSVGDRVTITCRASQDISNYLAWYQQKPGKVPKLLIYAASTLQSGVPSRFSGSGSGTDFTLTISSLQPEDVATYFCQKYNSAPFTFGPGTKVDIKR
CBD-toxin B-Fc
  binding (RU): -8 RU
CBD-toxin A-Fc [1]
  binding (RU): 224 RU
[2]
  IC50, Vero cell viability (neutralization), Trial 4, 32 pM Toxin A: 33 pM
CBD-toxin A-Fc [3]
  binding (RU): 269 RU
[4]
  Kd: 13.9 pM
  T½: 54.9 h
  koff: 3.5e-06 s⁻¹
  kon: 251000 M⁻¹ s⁻¹

B4: H1H3328P (antibody, V domains shown)
VH: EVQLVESGGGLVQPGGSLTLSCAASRFTFSNYDMHWVRQATGKGLEWVSAIGTVGDTYYAGSVKGRFTISRDDAKNSLYLQMNSLRAGDTAVYYCARDRGGAGTYSFYYGMDVWGQGTTVTVSS
VL: DIQMTQSPSSLSASVGDRVTITCRASQDISNYLAWYQQKPGKVPKLLIYAASTLQSGVPSRFSGSGSGTDFTLTVSSLQPEDVATYYCQKYTSAPFTFGPGTKVDIKR
CBD-toxin B-Fc
  binding (RU): -6 RU
CBD-toxin A-Fc [1]
  binding (RU): 227 RU
[2]
  IC50, Vero cell viability (neutralization), Trial 3, 32 pM Toxin A: 112 pM
CBD-toxin A-Fc [3]
  binding (RU): 354 RU
[4]
  Kd: 95.7 pM
  T½: 5.27 h
  koff: 3.66e-05 s⁻¹
  kon: 382000 M⁻¹ s⁻¹

B5: Control I (anti-toxin A antibody with the variable domains of the "3D8" antibody of U.S. Pat. No. 7,625,559 and US2005/0287150) (antibody, human IgG1, kappa, V domains shown)
VH: QVQLVESGGGVVQPGRSLRLSCAASGFSFSNYGMHWVRQAPGKGLEWVALIWYDGSNEDYTDSVKGRFTISRDNSKNTLYLQMNSLRAEDTAVYYCARWGMVRGVIDVFDIWGQGTVVTVSS
VL: DIQMTQSPSSVSASVGDRVTITCRASQGISSWLAWYQHKPGKAPKLLIYAASSLQSGVPSRFSGSGSGTDFTLTISSLQPEDFATYYCQQANSFPWTFGQGTKVEIKR
notes: also called control 1; Control Antibody I
[2]
  IC50, Vero cell viability (neutralization), Trial 5, 25 pM Toxin A: 199 pM
[4]
  Kd: 85.9 pM
  T½: 0.967 h
  koff: 3.24e-05 s⁻¹
  kon: 377000 M⁻¹ s⁻¹

B6: H1M3117N (antibody, V domains shown)
VH: EVQLLESGGGLAQPGGSLRLSCAASGFNFGTHDMSWVRQAPGKGLEWVSGLTSTGGSASSADSVKGRFTISRDNSKNILYLQMNSLRAEDTAVYYCAKTFNWNSYFDYWGQGTLVTVSS
VL: EIVLTQSPGTLSLSPGERATLSCRASQSISTYYLAWYQQKPDQPPRLLIYGTSSRATGIPDRFSGSGSGTDFTLTISRLDPEDFAVYYCQQYGNSLYTFGQGTKLEIK
CBD-toxin A-Fc [1]
  binding (RU): 350 RU
[2]
  IC50, Vero cell viability (neutralization), Trial 1, 32 pM Toxin A: 29 pM
  IC50, Vero cell viability (neutralization), Trial 2, 32 pM Toxin A: 11 pM
CBD-toxin A-Fc [3]
  binding (RU): -3 RU

B7: H1H3337P (antibody, V domains shown)
VH: EVQLVESGGGLVQPGGSLRLSCAASGFTFSIYAMSWVRQAPGKGLEWVSGISGSGGRTYYADSVKGRFTISRDNSKNTLYLQMNSLRVEDTAVYYCARGWELLNFWGQGTLVTVSS
VL: DIQMTQSPSSLSASVGDRVTITCRASQGISNNLAWFQQKPGKAPKSLIYAASSLKSGVPSKFSGSGSGTDFTLTINSLQPEDFATYYCHQYNSYPPTFGPGTKVDIKR
CBD-toxin A-Fc [1]
  binding (RU): 8 RU
[5]
  binding result: no binding (tested: CBD at ~500 nM, CBD:Mab 1:5 and 1:20)
[6]
  IC50, Vero cell viability (neutralization), Trial 1, 0.1 pM Toxin B: 1730 pM
  IC50, Vero cell viability (neutralization), Trial 2, 0.1 pM Toxin B: 980 pM
  IC50, Vero cell viability (neutralization), Trial 3, 0.03 pM Toxin B: 320 pM
[7]
  Kd: 3930 pM
  T½: 0.2 h
  koff: 0.000945 s⁻¹
  kon: 241000 M⁻¹ s⁻¹
CBD-toxin A-Fc [3]
  binding (RU): -17 RU

B8: H1H3411P (antibody, V domains shown)
VH: EVQLVESGGGLVQPGGSLRLSCAASGFTFSRYGMNWVRQAPGKGLEWVSAISGSGGSTYHADSVKGRFTISRDNSKNTLYLQMNSLRAADTAIYFCASYNWNDGVDVWGQGTTVTVS
VL: DIQMTQSPSSVSASIGDRVTITCRASQGISNWLAWYQQKPGKAPKLLIYGASSLQSGVSSRFSGSGSGTDFTLTIISLQPEDFATYYCQQANSFPYTFGQGTKLEIKR
[6]
  IC50, Vero cell viability (neutralization), Trial 2, 0.1 pM Toxin B; antibody only partially protects (40-50%) at highest concentration: 8 pM
[7]
  Kd: 677 pM
  T½: 1.22 h
  koff: 0.000159 s⁻¹
  kon: 235000 M⁻¹ s⁻¹

B9: H1H3394P (antibody, V domains shown)
VH: QVQLVQSGAEVQKPGASVKVSCKASGYTFTDYYIHWVRQAPGQGLEWMGWINPKTGGTNYAPKFQGRVTMTRDSSIITAYMDLTRLTSDDTAVFYCARRGYNSRWSVFDYWGQGTLVTVSS
VL: EIVLTQSPGTLSLSPGERATLSCRASQSVYSNYLAWYQQKRGLAPRLLIYGASSRATGIPDRFSGSGSGTDFTLTISRLEPEDFAVYYCQQHGGSPVTFGGGTKVEIKR
[7]
  Kd: 333 pM
  T½: 1.2 h
  koff: 0.000162 s⁻¹
  kon: 486000 M⁻¹ s⁻¹

B10: H1H3401P (antibody, V domains shown)
VH: QVQLVESGGGVVQPGRSLRLSCEASGFTFSSYGMHWVRQAPGNGLEWIAVISSDGNNKYYIESVKGRFTMSRDNSKNTLYLQLNSLRTEDTAVYYCATYNWNDDGDGVFDYWGQGTLVTVSS
VL: DIQMTQSPSSVSASVGDRVTITCRASQGISNWLAWYQQKPGKAPKLLIYGTSSLQSGVPSRFSGSGSGTDFTLTISSLQPEDFATYYCQQVKSFPYTFGQGTKLEIKR
[7]
  Kd: 574 pM
  T½: 0.8 h
  koff: 0.000241 s⁻¹
  kon: 420000 M⁻¹ s⁻¹

B11: H1H3354P (antibody, V domains shown)
VH: QVQLQQSGPGLVKPSQTLSLTCAISGDSVSSNSAAWNWIRQSPSRGLEWLGRTYYRSKWYHDYAFSVKSRILINPDTSKNLFSLQVNSVTPEDTAVYYCARDRRSYFDYWGQGTLVTVSS
VL: EIVLTQSPATLSLSPGERATLSCRASRSVSSSLAWYQQKPGQAPRLLIYDASNRATGIPARFSGGGSGTDFTLTISSLEPEDFAVYYCQQRNNWPPTFGQGTKLEIKR
CBD-toxin A-Fc [1]
  binding (RU): -2 RU
[5]
  binding result: no binding (tested: CBD at ~500 nM, CBD:Mab 1:5 and 1:20)
[7]
  binding result: no binding (tested: toxin at 5 to 10 nM)
CBD-toxin A-Fc [3]
  binding (RU): -19 RU

B12: H1H3067N (antibody, V domains shown)
VH: QIQLVESGGGVVQPGRSLRLSCVASGFTLSGHGMHWVRQAPGKGLEWVAFISFDGGHQDYTDAAEGRFTISRDNSKNTLYLEMVSLRPADTAIYYCVKGSDSSRGFGYWGRGILVTVSS
VL: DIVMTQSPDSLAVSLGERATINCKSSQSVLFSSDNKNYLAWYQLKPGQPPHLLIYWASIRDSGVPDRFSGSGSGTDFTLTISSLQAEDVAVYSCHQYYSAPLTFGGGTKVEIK
[8]
  Kd: 240 pM
  T½: 5.58 h
  koff: 3.45e-05 s⁻¹
  kon: 144000 M⁻¹ s⁻¹

B13: H1H3134N (antibody, V domains shown)
VH: QVQLVESGGDVVQPGRSLRLSCAASGFTFSGHGMHWVRQAPGKGLEWVALILYDGSSEDYTDSVKGRFTVSRDNSKNTLYLQMNSLRAEDTAVYYCARGSILNRPFDYWGQGTLVTVSS
VL: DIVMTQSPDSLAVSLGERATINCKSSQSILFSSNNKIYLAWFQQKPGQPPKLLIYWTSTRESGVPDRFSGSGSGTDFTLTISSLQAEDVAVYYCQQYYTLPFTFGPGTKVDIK
[8]
  Kd: 27.8 pM
  T½: 68.3 h
  koff: 2.82e-06 s⁻¹
  kon: 102000 M⁻¹ s⁻¹

B14: H1H3117N (antibody, V domains shown)
VH: EVQLLESGGGLAQPGGSLRLSCAASGFNFGTHDMSWVRQAPGKGLEWVSGLTSTGGSASSADSVKGRFTISRDNSKNILYLQMNSLRAEDTAVYYCAKTFNWNSYFDYWGQGTLVTVSS
VL: EIVLTQSPGTLSLSPGERATLSCRASQSISTYYLAWYQQKPDQPPRLLIYGTSSRATGIPDRFSGSGSGTDFTLTISRLDPEDFAVYYCQQYGNSLYTFGQGTKLEIK
[4]
  Kd: 79.3 pM
  T½: 5.53 h
  koff: 3.84e-05 s⁻¹
  kon: 438000 M⁻¹ s⁻¹

B15: H1H3350P (antibody, V domains shown)
VH: QVQLVESGGGLVKPGGSLTLSCVASGFTFTDYYISWIRQAPGKGLEWISYIGTGGAAKYYADSVKGRFTVSRDNAKNSLYLLMNNLRAEDTAVYYCARDLGIFDLWGQGTLVTVSS
VL: EIVMTQSPATLSVSPGERATLSCRASQSVSSSLAWYHQKPGQAPRLLIHGVSTRATGIPARFSGTGSGTEFTLTISSLQSEDFAVYYCQQYHNWPPYTFGQGTKLEIKR
[4]
  Kd: 10.1 pM
  T½: 47.6 h
  koff: 4.05e-06 s⁻¹
  kon: 402000 M⁻¹ s⁻¹

B16: H1H3355P (antibody, V domains shown)
VH: EVQLVESGGGLVQPGRSLRLSCTASGFVFEDYAMHWVRQAPGKGLEWVSGISWNSGRIGYTDSVKGRFTVSRDNAKNSLYLQMNSLTTEDTALYYCAKDKSPSKWNLLGMDVWGQGTTVTVSS
VL: AIQMTQSPSSLSASVGDRVTITCRASQDIRNDLGWFQQKPGRAPNLLIFGASSLQSGVPSRFSGSGSGTDFTLTISGLQPEDFSTYYCLQDYTYPFTFGPGTKVDIKR
[7]
  binding result: no binding (tested: toxin at 5 to 10 nM)
